Measured values as given in PMC7261414, “A complex comprising C15ORF41 and Codanin-1: the products of two genes mutated in congenital dyserythropoietic anaemia type I (CDA-I)” (Biochemical Journal, 2020).

Target: T1, Codanin-1-C (fragment of Codanin-1, amino acids P800-S1227) (human, UniProt Q8IWY9 800-1227)
T1 construct: Codanin-1, amino acids P800-S1227; Plasmid pET28a 6His z-basic TEV CDAN1^P800-S1227; the text speaks only of the hexahistidine tag being cleaved with TEV; that z-basic goes with it follows from the order in the plasmid's name; also called CDAN1^P800-S1227; source: E. coli, purified (Ni2+-NTA agarose, tag cleaved with His-TEV protease); not shown: His6, N-terminal, cleaved; z-basic, N-terminal, …
T1 sequence (looked up): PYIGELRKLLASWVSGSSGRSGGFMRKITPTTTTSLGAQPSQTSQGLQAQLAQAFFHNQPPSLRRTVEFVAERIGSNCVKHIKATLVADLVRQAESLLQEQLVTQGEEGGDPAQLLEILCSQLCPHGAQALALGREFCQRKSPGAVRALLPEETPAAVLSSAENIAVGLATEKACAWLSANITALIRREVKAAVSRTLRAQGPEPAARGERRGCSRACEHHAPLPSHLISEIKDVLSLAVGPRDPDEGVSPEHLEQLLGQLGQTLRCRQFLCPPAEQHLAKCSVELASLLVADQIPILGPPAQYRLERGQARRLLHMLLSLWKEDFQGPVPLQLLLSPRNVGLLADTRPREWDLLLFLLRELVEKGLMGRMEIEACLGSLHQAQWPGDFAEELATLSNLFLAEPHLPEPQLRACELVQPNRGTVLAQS
Experiment: pull-down + SEC; purified His6-C15ORF41 re-bound to Ni2+-NTA agarose, excess of purified Codanin-1-C passed over, eluted with 400 mM imidazole, Superdex 200 16/60 in 50 mM Tris pH 7.5, 500 mM NaCl, 5% glycerol, 0.5 mM TCEP
Conditions: both partners purified

binding result: binds
B1: His6-C15ORF41 bearing the solubilising mutations V18M, C223S and W237R (natural protein, human, UniProt Q9Y2V0 1-281, looked up)
chain: MILTKAQYDEIAQCLVSMPPTRQSLRKLKQRFPSQSQATLLSIFSQEYQKHIKRTHAKHHTSEAIESYYQRYLNGVVKNGAAPVLLDLANEVDYAPSLMARLILERFLQEHEETPPSKSIINSMLRDPSQIPDGVLANQVYQCIVNDCCYGPLVDCIKHAIGHEHEVLLRDLLLEKNLSFLDEDQLRAKGYDKTPDFILQVPVAVEGHIIHWIESKASFGDESSHHAYLHDQFWSYRNRFGPGLVIYWYGFIQELDCNRERGILLKACFPTNIVTLCHSIA
notes: C15ORF41 (CDIN1) with the extra mutations V18M, C223S and W237R; Plasmid pNIC28 Bsa4 6His Tev C15ORF41^(V18M C223S W237R), a gift from J. Newman (SGC Oxford); preparations held bacterial ArnA as a contaminant; also called C15ORF41^(V18M C223S W237R); source: E. coli, purified (Ni2+-NTA agarose, dialysis); not shown: His6, N-terminal, kept
